Data: patent US20240116985A1 (published 2024)
Starred links: 1 amine or outer side, 2 acyl side, 3 side chain; linkers in the order of their positions; H or OH if unused. Positions of bridges follow the written chain, without caps; N, C: chain ends. Non-standard residues stand in square brackets, D forms with d. Primed or numbered codes have the meaning given here. *: point of attachment. B5(29) = 2-amino-2-(pent-4-en-1-yl)hept-6-enoic acid (2,2-bis(4-pentenyl)glycine), stitching residue bearing both staples, C=CCCCC(CCCC=C)(N[*:1])C(=O)[*:2]; PyrS2″ = (S)-3-amino-1-((pent-4-en-1-yloxy)carbonyl)pyrrolidine-3-carboxylic acid (stapling residue), C=CCCCOC(=O)N1CC[C@@](N[*:1])(C(=O)[*:2])C1; PyrS3″ = (S)-3-amino-1-((hex-5-en-1-yloxy)carbonyl)pyrrolidine-3-carboxylic acid (stapling residue), C=CCCCCOC(=O)N1CC[C@@](N[*:1])(C(=O)[*:2])C1; B5(6) = 2-amino-2-(pent-4-en-1-yl)hept-6-enoic acid (bis(4-pentenyl)glycine), stitching residue, C=CCCCC(CCCC=C)(N[*:1])C(=O)[*:2]; PyrS2 = (S)-3-amino-1-((pent-4-en-1-yloxy)carbonyl)pyrrolidine-3-carboxylic acid, C=CCCCOC(=O)N1CC[C@@](N[*:1])(C(=O)[*:2])C1; PyrS3 = (S)-3-amino-1-((hex-5-en-1-yloxy)carbonyl)pyrrolidine-3-carboxylic acid, C=CCCCCOC(=O)N1CC[C@@](N[*:1])(C(=O)[*:2])C1; B5(7) = 2-amino-2-(pent-4-en-1-yl)hept-6-enoic acid, two olefinic side chains, C=CCCCC(CCCC=C)(N[*:1])C(=O)[*:2]; 4MePipBz = 4-((4-methylpiperazin-1-yl)methyl)benzoyl on Lys side chain, CN1CCN(Cc2ccc(C(=O)*)cc2)CC1; 35CF3PhPr = 3-(3,5-bis(trifluoromethyl)phenyl)propanoyl, O=C(CCc1cc(C(F)(F)F)cc(C(F)(F)F)c1)*; B5(3) = 2,2-bis(4-pentenyl)glycine (stitching residue), C=CCCCC(CCCC=C)(N[*:1])C(=O)[*:2]; Me3AdamantC = 3,5,7-trimethyladamantane-1-carbonyl, CC12CC3(C)CC(C)(C1)CC(C(=O)*)(C2)C3; MeMorphBz = 4-(morpholinomethyl)benzoyl on Lys side chain, O=C(c1ccc(CN2CCOCC2)cc1)*; B5 = 2-amino-2-(pent-4-en-1-yl)hept-6-enoic acid, C=CCCCC(CCCC=C)(N[*:1])C(=O)[*:2]; Bta = N[C@@H](Cc1csc2ccccc12)C(=O)O; αAllylPro = C=CC[C@@]1(C(=O)O)CCCN1; tBuAla = CC(C)(C)C[C@H](N)C(=O)O; 3Thi = N[C@@H](Cc1ccsc1)C(=O)O; S8 = C=CCCCCCC[C@](C)(N)C(=O)O; AdamantC = not defined here; PyrS2(4) = not defined here; hSer = N[C@@H](CCO)C(=O)O; Octanoyl = CCCCCCCC(=O)*; Butyryl = CCCC(=O)*

B1: I-494 (peptide)
peptide: XDAXDEAAFQXFXQ
modifications: not fully specified; Ac-PL3-Asp-Ala-B5-Asp-Glu-Ala-Ala-Phe-Gln-S8-Phe-BztA-DGIn-NH2 (so in the source); read as D-Gln at position 14); N-terminal acetyl, C-terminal amide; stapled PL3-B5 and B5-S8
notes: Stapled peptide composition
B2: I-493 (peptide)
peptide: XDAXDEAAFQXFXS
modifications: not fully specified; Ac-PL3-Asp-Ala-B5-Asp-Glu-Ala-Ala-Phe-Gln-S8-Phe-BztA-DSer-NH2; N-terminal acetyl, C-terminal amide; D-Ser at position 14; stapled PL3-B5 and B5-S8
notes: Stapled peptide composition
B3: I-492 (peptide)
peptide: XDAXDEAAFQXFXS
modifications: not fully specified; Ac-PL3-Asp-Ala-B5-Asp-Glu-Ala-Ala-Phe-Gln-S8-Phe-BztA-Hse-NH2; N-terminal acetyl, C-terminal amide; stapled PL3-B5 and B5-S8
notes: Stapled peptide composition
B4: I-497 (peptide)
peptide: Ac-[αAllylPro]DA[B5(6)][hSer]EAAFQ[S8]F[Bta]Q-NH2
modifications: staple 1-4, 4-11; not fully specified; printed as Ac-PL3-Asp-Ala-B5-Hse-Glu-Ala-Ala-Phe-Gln-S8-Phe-BztA-Gln-NH2
notes: Stapled peptide composition
B5: I-498 (peptide)
peptide: Ac-[αAllylPro]DA[B5(6)][hSer]EAAFQ[S8]F[Bta]Q-NH2
modifications: staple 1-4, 4-11; not fully specified; printed as Ac-PL3-Asp-Ala-B5-Hse-Glu-Ala-Ala-Phe-Gln-S8-Phe-BztA-Gln-NH2
notes: Stapled peptide composition
B6: I-491 (peptide)
peptide: XDAXDEAAFQXFXS
modifications: not fully specified; Ac-PL3-Asp-Ala-B5-Asp-Glu-Ala-Ala-Phe-Gln-S8-Phe-BztA-Hse-NH2; N-terminal acetyl, C-terminal amide; stapled PL3-B5 and B5-S8
notes: Stapled peptide composition
B7: I-496 (peptide)
peptide: Ac-[αAllylPro]DA[B5(6)][hSer]EAAFQ[S8]F[Bta]Q-NH2
modifications: staple 1-4, 4-11; not fully specified; printed as Ac-PL3-Asp-Ala-B5-Hse-Glu-Ala-Ala-Phe-Gln-S8-Phe-BztA-Gln-NH2
notes: Stapled peptide composition
B8: I-479 (peptide)
peptide: XDAXDEAAFNXFXH
modifications: not fully specified; Ac-PL3-Asp-Ala-B5-Asp-Glu-Ala-Ala-Phe-Asn-S8-Phe-BztA-1MeH-NH2; N-terminal acetyl, C-terminal amide; stapled PL3-B5 and B5-S8
notes: Stapled peptide composition
B9: I-476 (peptide)
peptide: XDIXDEAAFNXFXQ
modifications: not fully specified; Ac-PL3-Asp-aIle-B5-Asp-Glu-Ala-Ala-Phe-Asn-S8-Phe-BztA-Gln-NH2; N-terminal acetyl, C-terminal amide; stapled PL3-B5 and B5-S8
notes: Stapled peptide composition
B10: I-475 (peptide)
peptide: XDIXDEAAFNXFXQ
modifications: not fully specified; Ac-PL3-Asp-aIle-B5-Asp-Glu-Ala-Ala-Phe-Asn-S8-Phe-BztA-Gln-NH2; N-terminal acetyl, C-terminal amide; stapled PL3-B5 and B5-S8
notes: Stapled peptide composition
B11: I-478 (peptide)
peptide: XDAXDEAAFNXFXH
modifications: not fully specified; Ac-PL3-Asp-Ala-B5-Asp-Glu-Ala-Ala-Phe-Asn-S8-Phe-BztA-1MeH-NH2; N-terminal acetyl, C-terminal amide; stapled PL3-B5 and B5-S8
notes: Stapled peptide composition
B12: I-495 (peptide)
peptide: XDIXDEAAFQXFXN
modifications: not fully specified; Ac-PL3-Asp-Ile-B5-Asp-Glu-Ala-Ala-Phe-Gln-S8-Phe-BztA-Asn-NH2; N-terminal acetyl, C-terminal amide; stapled PL3-B5 and B5-S8
notes: Stapled peptide composition

biological target: T1, B-cat-Halo (beta-catenin HaloTag NanoBRET construct expressed in HEK293 cells) (UniProt P35222 1-781); assay: cell-based or functional assay
T1 sequence (looked up): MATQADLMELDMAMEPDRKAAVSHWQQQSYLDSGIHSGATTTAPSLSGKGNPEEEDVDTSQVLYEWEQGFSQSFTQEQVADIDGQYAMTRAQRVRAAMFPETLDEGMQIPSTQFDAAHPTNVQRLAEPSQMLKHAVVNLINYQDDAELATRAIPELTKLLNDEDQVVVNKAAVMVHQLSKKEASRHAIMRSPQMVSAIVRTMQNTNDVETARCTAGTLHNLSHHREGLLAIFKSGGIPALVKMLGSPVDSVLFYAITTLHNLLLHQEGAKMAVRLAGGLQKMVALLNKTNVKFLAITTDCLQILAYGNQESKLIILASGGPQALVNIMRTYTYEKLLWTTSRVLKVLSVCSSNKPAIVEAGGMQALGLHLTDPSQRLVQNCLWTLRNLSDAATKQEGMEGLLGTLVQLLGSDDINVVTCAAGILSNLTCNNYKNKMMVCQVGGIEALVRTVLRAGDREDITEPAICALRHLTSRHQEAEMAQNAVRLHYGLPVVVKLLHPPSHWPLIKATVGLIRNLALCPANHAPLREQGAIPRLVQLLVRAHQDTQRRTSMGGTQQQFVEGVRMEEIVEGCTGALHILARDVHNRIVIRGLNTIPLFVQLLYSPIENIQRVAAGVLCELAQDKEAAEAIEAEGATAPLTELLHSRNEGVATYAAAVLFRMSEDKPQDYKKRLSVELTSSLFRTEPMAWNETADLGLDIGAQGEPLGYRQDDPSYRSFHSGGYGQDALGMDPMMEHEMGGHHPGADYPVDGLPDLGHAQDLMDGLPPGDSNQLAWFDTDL

| NanoBRET Abs IC50 [µM] | Binder |
| --- | --- |
| 21.2 | Ac-[αAllylPro]D[tBuAla][B5(3)]DDAAFN[PyrS2][3Thi][Bta]QK(35CF3PhPr)-NH2 (staple 1-4, 4-11) [I-902] |
| > 20 | Ac-[αAllylPro]D[tBuAla][B5(3)]DDAK(mPEG2)FN[PyrS2][3Thi][Bta]Q-NH2 (staple 1-4, 4-11; not fully specified) [I-892] |
| > 20 | Ac-[αAllylPro]D[tBuAla][B5(3)]DDAK(4MePipBz)FN[PyrS2″][3Thi][Bta]Q-NH2 (staple 1-4, 4-11) [I-889] |
| > 20 | Ac-[αAllylPro]D[tBuAla][B5(3)]DDAK(MeMorphBz)FN[PyrS2″][3Thi][Bta]Q-NH2 (staple 1-4, 4-11) [I-890] |
| > 20 | Ac-[αAllylPro]D[tBuAla][B5(3)]DDAK(Me3AdamantC)FN[PyrS2][3Thi][Bta]Q-NH2 (staple 1-4, 4-11) [I-900] |
| > 20 | Ac-[αAllylPro]D[tBuAla][B5(3)]DDAK(AdamantC)FN[PyrS2(4)][3Thi][Bta]Q-NH2 (staple 1-4, 4-11; reading uncertain) [I-899] |
| > 20 | Ac-[αAllylPro]D[tBuAla][B5(3)]DDAK(Octanoyl)FN[PyrS2][3Thi][Bta]Q-NH2 (staple 1-4, 4-11; not fully specified) [I-898] |
| > 20 | Ac-[αAllylPro]D[tBuAla][B5(3)]DDAK(Butyryl)FN[PyrS2][3Thi][Bta]Q-NH2 (staple 1-4, 4-11) [I-897] |

biological target: T2, B-cat-Halo (beta-catenin HaloTag fusion expressed in HEK293 cells) (Homo sapiens (Human), UniProt P35222 1-781); assay: cell-based or functional assay
T2 sequence: T1 sequence (looked up)

| NanoBRET % inh @ 10 uM [%] | NanoBRET IC50 [µM] | NanoBRET Abs IC50 [µM] | Binder |
| --- | --- | --- | --- |
| 53 | 7.7 |  | Ac-[αAllylPro]D[tBuAla][B5]DDAAFN[PyrS2″][3Thi][Bta]Q[dA]-NH2 (staple 1-4, 4-11) [I-822] |
| 32.4 |  |  | Ac-[αAllylPro]D[tBuAla][B5(7)]DDAAFN[PyrS3][3Thi][Bta]Q[dA]-NH2 (staple 1-4, 4-11) [I-831] |
|  | 11.8 |  | Ac-[αAllylPro]D[tBuAla][B5]DDAAFN[PyrS2″][3Thi][Bta]S-NH2 (staple 1-4, 4-11) [I-815] |
| 31.4 |  |  | Ac-[αAllylPro]D[tBuAla][B5]DDAAFN[PyrS2″][3Thi][Bta][dN]-NH2 (staple 1-4, 4-11) [I-818] |
|  | 12.7 |  | Ac-[αAllylPro]D[tBuAla][B5]DDAAFN[PyrS2″][3Thi][Bta]T-NH2 (staple 1-4, 4-11) [I-814] |
|  |  | 16.9 | Ac-[αAllylPro]D[tBuAla][B5(3)]DNAAFN[PyrS2″][3Thi][Bta]Q-NH2 (staple 1-4, 4-11) [I-836] |
| 37.8 |  |  | Ac-[αAllylPro]D[tBuAla][B5]DDAAFN[PyrS2″][3Thi][Bta]QA-NH2 (staple 1-4, 4-11) [I-819] |
| 45 | 6.8 |  | Ac-[αAllylPro]D[tBuAla][B5]DDAAFN[PyrS2″][3Thi][Bta][dT]-NH2 (staple 1-4, 4-11) [I-817] |
| 37.5 | > 10 |  | Ac-[αAllylPro]D[tBuAla][B5(7)]DDAAFN[PyrS2][3Thi][Bta]H[dA]-NH2 (staple 1-4, 4-11) [I-823] |
|  | 11.7 |  | Ac-[αAllylPro]D[tBuAla][B5(3)]DDAAFT[PyrS2″][3Thi][Bta]Q-NH2 (staple 1-4, 4-11) [I-809] |
| 27.6 |  |  | Ac-[αAllylPro]D[tBuAla][B5(3)]DDAAFN[PyrS3″][3Thi][Bta]N[dA]-NH2 (staple 1-4, 4-11) [I-835] |
| 30.8 |  |  | Ac-[αAllylPro]D[tBuAla][B5]DDAAFN[PyrS2″][3Thi][Bta]HA-NH2 (staple 1-4, 4-11) [I-820] |

biological target: T3, full-length beta-Catenin (Uniprot ID P35222) (Homo sapiens (Human), UniProt P35222 1-781); assay: fluorescence polarization competition; displacement of 5FAM-TCF4(10-53) from full-length beta-catenin
T3 construct: Used full-length in the fluorescence polarization probe solution (10 nM); also called bCat; B-Catenin
T3 sequence: T1 sequence (looked up)
Description: The plate was incubated protected from light for 60 minutes at 20° C. prior to read. Reads were performed on a CLARIOstar plate reader (BMG Labtech) in duplicate, and data were fitted to a 1:1 binding model with hill slope using an in-house script. All provided concentrations are final concentrations.

| EC50 [nM] | Binder |
| --- | --- |
| 82 | B1 |
| 88 | B2 |
| 53 | B3 |
| 5000 | B4 |
| 5000 | B5 |
| 153 | B6 |
| 119 | Ac-[αAllylPro]DT[B5(29)]DEAAFQ[S8]F[Bta]Q-NH2 (staple 1-4, 4-11, Stapled peptide composition) [I-477] |
| 5000 | B7 |
| 11 | Ac-[αAllylPro]DI[B5(6)]DDAAFN[S8]F[Bta]H-NH2 (staple 1-4, 4-11; also: separate HPLC peak/isomer composition from I-469, Stapled peptide composition) [I-470] |
| 52 | Ac-[αAllylPro]DI[B5(6)]DEAAFQ[S8]F[Bta]H-NH2 (staple 1-4, 4-11, Stapled peptide composition) [I-471] |
| 27 | B8 |
| 48 | B9 |
| 102 | B10 |
| 71 | B11 |
| 181 | B12 |
